Measured values taken from US11512128B2, “VEGF/DLL4 binding agents and uses thereof” (MEREO BIOPHARMA 5, INC., priority 2011, dated 2022).
Changes are numbered by the printed parent chain.

B1: 21M18: anti-DLL4 antibody, parental antibody (Hoey et al., 2009; U.S. Pat. No. 7,750,124) (antibody, V domains shown)
VH: QVQLVQSGAEVKKPGASVKISCKASGYSFTAYYIHWVKQAPGQGLEWIGYISSYNGATNYNQKFKGRVTFTTDTSTSTAYMELRSLRSDDTAVYYCARDYDYDVGMDYWGQGTLVTVSS
VL: DIVMTQSPDSLAVSLGERATISCRASESVDNYGISFMKWFQQKPGQPPKLLIYAASNQGSGVPDRFSGSGSGTDFTLTISSLQAEDVAVYYCQQSKEVPWTFGGGTKVEIK
B2: 219R45-MB-21R79: anti-VEGF/anti-DLL4 monovalent/bispecific antibody, heavy chains SEQ ID NO:7 and 6, light chains SEQ ID NO:8 (antibody)
heavy 1: QVQLVQSGAEVKKPGASVKVSCKASGYTFTNYWMHWVRQAPGQGLEWMGDINPSNGRTSYKEKFKRRVTLSVDKSSSTAYMELSSLRSEDTAVYFCTIHYDDKYYPLMDYWGQGTLVTVSSASTKGPSVFPLAPCSRSTSESTAALGCLVKDYFPEPVTVSWNSGALTSGVHTFPAVLQSSGLYSLSSVVTVPSSNFGTQTYTCNVDHKPSNTKVDKTVERKCCVECPPCPAPPVAGPSVFLFPPKPKDTLMISRTPEVTCVVVDVSHEDPEVQFNWYVDGVEVHNAKTKPREEQFNSTFRVVSVLTVVHQDWLNGKEYKCKVSNKGLPAPIEKTISKTKGQPREPQVYTLPPSREKMTKNQVSLTCLVKGFYPSDIAVEWESNGQPENNYKTTPPMLKSDGSFFLYSKLTVDKSRWQQGNVFSCSVMHEALHNHYTQKSLSLSPGK
heavy 2: QVQLVQSGAEVKKPGASVKISCKASGYSFTAYYIHWVKQAPGQGLEWIGYIANYNRATNYNQKFKGRVTFTTDTSTSTAYMELRSLRSDDTAVYYCARDYDYDVGMDYWGQGTLVTVSSASTKGPSVFPLAPCSRSTSESTAALGCLVKDYFPEPVTVSWNSGALTSGVHTFPAVLQSSGLYSLSSVVTVPSSNFGTQTYTCNVDHKPSNTKVDKTVERKCCVECPPCPAPPVAGPSVFLFPPKPKDTLMISRTPEVTCVVVDVSHEDPEVQFNWYVDGVEVHNAKTKPREEQFNSTFRVVSVLTVVHQDWLNGKEYKCKVSNKGLPAPIEKTISKTKGQPREPQVYTLPPSREEMTKNQVSLTCLVEGFYPSDIAVEWESNGQPENNYKTTPPMLDSDGSFFLYSELTVDKSRWQQGNVFSCSVMHEALHNHYTQKSLSLSPGK
light: DIVMTQSPDSLAVSLGERATISCRASESVDNYGISFMKWFQQKPGQPPKLLIYAASNQGSGVPDRFSGSGSGTDFTLTISSLQAEDVAVYYCQQSKEVPWTFGGGTKVEIKRTVAAPSVIFPPSDEQLKSGTASVVCLLNNFYPREAKVQWKVDNALQSGNSQESVTEQDSKDSTYSLSSTLTLSKADYEKHKVYACEVTHQGLSSPVTKSFNRGEC
modifications: 21R79 Heavy chain without predicted signal sequence; Light chain without predicted signal sequence
B3: 219R45-MB-21M18: anti-VEGF/anti-DLL4 monovalent/bispecific antibody, heavy chains SEQ ID NO:7 and 5, light chains SEQ ID NO:8 (antibody)
heavy 1: B2 heavy 1
heavy 2: B2 heavy 2 with A52S, N53S, R56G
light: B2 light
modifications: 21R79 Heavy chain without predicted signal sequence; 21M18 Heavy chain without predicted signal sequence; Light chain without predicted signal sequence

What was measured:
OMP-C8 colon tumor = OMP-C8 colon tumor recurrence model; assay type: in vivo, NOD/SCID mice; conditions: 21M18, bevacizumab 7.5 mg/kg, bispecifics 15 mg/kg weekly ip; irinotecan 45 mg/kg for first four weeks
Experimental: FIG. 9. Inhibition of colon tumor growth by anti-VEGF/anti-DLL4 bispecific antibodies in tumor recurrence model. OMP-C8 colon tumor cells were injected subcutaneously in NOD/SCID mice. Mice were treated with control antibody (-▪-), anti-hDLL4 antibody 21M18 (-●-), anti-VEGF antibody bevacizumab (-▴-), a combination of 21M18 and bevacizumab (-▾-), anti-VEGF/anti-DLL4 bispecific antibody 219R45-MB-21M18 (-⋄-), or anti-VEGF/anti-DLL4 bispecific antibody 219R45-MB-21R79 (-∘-), all in combination with irinotecan. Antibodies 21M18 and bevacizumab were administered intraperitoneally at a dose of 7.5 mg/kg once a week, bispecific antibodies 219R45-MB-21M18 and 219R45-MB-21R79 were administered intraperitoneally at a dose of 15 mg/kg once a week, and irinotecan was administered for the first 4 weeks at a dose of 45 mg/kg. Data are shown as tumor volume (mm^3) over days post-treatment.
Single cell suspensions of OMP-C8 colon tumor xenografts (20,000 cells) were injected subcutaneously into the flanks of 6-8 week old NOD/SCID mice. […] Tumor growth was monitored and tumor volumes were measured with electronic calipers at the indicated time points. Data are expressed as mean±S.E.M.

[1] = test system: VEGF-induced proliferation of HUVEC cells; assay: HUVEC proliferation assay; assay type: cell-based, human; conditions: hVEGF 5 ng/ml, Alamar Blue on day 7
Experimental: FIG. 3. Inhibition of VEGF-induced HUVEC proliferation by anti-VEGF/anti-DLL4 bispecific antibodies. Fluorescence intensity is read using an excitation wavelength of 530 nm and an emission wavelength of 590. 219R45-MB-21M18 (-●-); 219R45-MB-21R79 (-▴-); 219R45 (-▪-); Medium with no VEGF (-⋄-).
HUVEC cells were obtained from Lonza (Walkersville, Md.) and cultured in growth media (M199, 10% heat-inactivated FBS (HI-FBS), 50 μg/ml EGS, 1X heparin, 1 mM L-glutamine). For the HUVEC proliferation assay, a 96-well plate was pre-coated with 50 μl of 10 μg/ml rat tail collagen type I solution (collagen I in 0.02N acetic acid) and incubated at 4° C. overnight. After incubation, the plate was thoroughly aspirated to remove unbound collagen I solution and washed once with 200 μl DPBS. The HUVEC cells were removed from the surface of the growth flasks using an endothelial cell subclone reagent and centrifuged at 1200 rpm for 5 minutes at 4° C. The cells were resuspended in starvation/assay medium (M199 and 2% HI-FBS, 1× heparin, 5 U/ml heparin-glutamine) at a density of 10^5 cells/ml. The cells were seeded into the collagen-coated assay plate at 5000 cells/well, 50 ul/well. The cells were incubated for 3 hours at 37° C., washed one time, refed with 100 ul assay media, and incubated overnight at 37° C. The next day, bispecific antibodies 219R45-MB-21M18, 219R45-MB-21R79, parental antibody 219R45, or control antibody LZ1 were prepared in a mixture with human VEGF (R&D Biosystems, Minneapolis, Minn.). The antibodies were serially diluted 5-fold from […] to 0.25 nM in assay buffer in combination with hVEGF (final concentration 5 ng/ml). The mixture was pre-incubated at 37° C. for 2 hours. The medium was removed from the assay plate, and 100 μl of the antibody/hVEGF mixture was added to each well. […] The plate was read with a SpectraMax M5e Microplate reader (Molecular Devices, Sunnyvale CA) using a excitation wavelength of […] and an emission wavelength of 590 nm.

VEGF and DLL4 = VEGF and DLL4 (Homo sapiens, UniProt P15692+Q9NR61); assay: HTRF assay for simultaneous binding to human VEGF and human DLL4; conditions: d2-labeled hDLL4-Fc and Europium cryptate-labeled hVEGF165
Text: FIG. 2. HTRF assay for simultaneous binding of bispecific antibodies to human VEGF and human DLL4. Results are reported in Relative Fluorescence Units (RFU), which represent the ratio of the relative fluorescence intensity at 665 nm to the relative fluorescence intensity at 620 nm. 219R45-MB-21M18 (-●-); 219R45-MB-21R79 (-▪-); 219R45 plus 21M18 (-▴-); 219R45 plus 21R79 (-□-); 219R45 (-▾-); 21M18 (-⋄-); 21R79 (-∘-); control antibody LZ-1 (-Δ-).
To characterize the binding capabilities of certain antibodies and/or antibody mixtures to both VEGF and DLL4, homogeneous time resolved fluorescence (HTRF) assays were performed. Antibodies tested were anti-VEGF/anti-DLL4 bispecific antibodies 219R45-MB-21M18 and 219R45-MB-21R79, parental antibodies 219R45 (anti-VEGF), 21M18 (anti-DLL4), 21R79 (anti-DLL4), a combination of 219R45 and 21M18, or a combination of 219R45 and 21R79. The antibodies or antibody mixtures were serially diluted 2-fold from 3000 nM to 2.9 nM in binding buffer (1× PBS, 0.1% gelatin, 0.1% Polysorbate 20, 400 mM potassium fluoride) and placed in a white 96-well plate. […] The assay plates were incubated for 2 hours to overnight and read on a SpectraMax M5e Microplate reader (Molecular Devices, Sunnyvale, Calif.) at an excitation wavelength of 314 nm.

Molecule	inhibition of tumor regrowth after irinotecan was stopped (OMP-C8 colon tumor)	inhibition of VEGF-induced HUVEC proliferation [1]	simultaneous binding to hVEGF and hDLL4 (VEGF and DLL4)
B1	continued to inhibit tumor growth after treatment with irinotecan was stopped		
B2		inhibited HUVEC proliferation	able to bind both hVEGF and hDLL4 simultaneously
B3	more effective at inhibiting tumor regrowth than the mixture of the two antibodies	inhibited HUVEC proliferation	able to bind both hVEGF and hDLL4 simultaneously
